Laboratory results as given in publication PMC9409194, “Salt Dependence of DNA Binding Activity of Human Transcription Factor Dlx3”.

Molecular target: Dlx3-HD (human, UniProt O60479 129-188)
Assay: NMR (1H/15N-HSQC CSP and imino proton titration); 100 mM NaCl, 35 C; slow exchange; 10 mM sodium phosphate pH 6.0, 100, 250 or 500 mM NaCl, 90% H2O/10% D2O, 35 C
Details: protein: recombinant; tags: Ni-NTA purified (His-tag implied); blunt

Dlx3-HD, sequence (O60479 129-188): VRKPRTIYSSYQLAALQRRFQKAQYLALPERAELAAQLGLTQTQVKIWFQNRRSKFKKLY

B1: dlxDNA (dsDNA)
DNA 1: CGTAATTGCC
DNA 2: GGCAATTACG
- binding result: binds
